In patent US20160109449A1 (JULIUS MAXIMILIANS UNIVERSITAET WUERZBURG, published 2016):

Experiments:
[1] = molecular target: T1, IsaA oligopeptide SEQ ID NO: 36 (Staphylococcus aureus); test: peptide array on glass slide, fluorescent secondary antibody
T1 sequence (peptide): GSDVQSVSYNAQSSN

[2] = molecular target: IsaA oligopeptide SEQ ID NO: 47 (Staphylococcus aureus); test: as above
[3] = molecular target: IsaA oligopeptide SEQ ID NO: 27 (Staphylococcus aureus); test: as above
[4] = molecular target: IsaA oligopeptide SEQ ID NO: 42 (Staphylococcus aureus); test: as above
[5] = molecular target: IsaA oligopeptide SEQ ID NO: 19 (Staphylococcus aureus); test: as above
[6] = molecular target: T2, IsaA oligopeptide SEQ ID NO: 30 (Staphylococcus aureus); test: as above
T2 sequence (peptide): EAANGQTAGFSNVAG

[7] = molecular target: IsaA oligopeptide SEQ ID NO: 38 (Staphylococcus aureus); test: as above
[8] = molecular target: IsaA oligopeptide SEQ ID NO: 54 (Staphylococcus aureus); test: as above
[9] = molecular target: IsaA oligopeptide SEQ ID NO: 40 (Staphylococcus aureus); test: as above
[10] = molecular target: IsaA oligopeptide SEQ ID NO: 35 (Staphylococcus aureus); test: as above
[11] = molecular target: IsaA oligopeptide SEQ ID NO: 48 (Staphylococcus aureus); test: as above
[12] = molecular target: IsaA oligopeptide SEQ ID NO: 15 (Staphylococcus aureus); test: as above
[13] = molecular target: IsaA oligopeptide SEQ ID NO: 34 (Staphylococcus aureus); test: as above
[14] = molecular target: IsaA oligopeptide SEQ ID NO: 26 (Staphylococcus aureus); test: as above
[15] = molecular target: IsaA oligopeptide SEQ ID NO: 20 (Staphylococcus aureus); test: as above
[16] = molecular target: IsaA oligopeptide SEQ ID NO: 62 (Staphylococcus aureus); test: as above
[17] = molecular target: T3, IsaA oligopeptide SEQ ID NO: 16 (Staphylococcus aureus); test: as above
T3 sequence (peptide): AAEVNVDQAHLVDLA

[18] = molecular target: IsaA oligopeptide SEQ ID NO: 58 (Staphylococcus aureus); test: as above
[19] = molecular target: IsaA oligopeptide SEQ ID NO: 12 (Staphylococcus aureus); test: as above
[20] = molecular target: IsaA oligopeptide SEQ ID NO: 46 (Staphylococcus aureus); test: as above
[21] = molecular target: T4, IsaA oligopeptide SEQ ID NO: 14 (Staphylococcus aureus); test: as above
T4 sequence (peptide): AGTGHQAHAAEVNVD

[22] = molecular target: IsaA oligopeptide SEQ ID NO: 25 (Staphylococcus aureus); test: as above
[23] = molecular target: IsaA oligopeptide SEQ ID NO: 23 (Staphylococcus aureus); test: as above
[24] = molecular target: IsaA oligopeptide SEQ ID NO: 52 (Staphylococcus aureus); test: as above
[25] = molecular target: T5, IsaA oligopeptide SEQ ID NO: 28 (Staphylococcus aureus); test: as above
T5 sequence (peptide): GTTWSWSYEAANGQT

[26] = molecular target: T6, IsaA oligopeptide SEQ ID NO: 60 (Staphylococcus aureus); test: as above
T6 sequence (peptide): GWGPTNTVDQQINAA

[27] = molecular target: T7, IsaA oligopeptide SEQ ID NO: 31 (Staphylococcus aureus); test: as above
T7 sequence (peptide): GQTAGFSNVAGADYT

[28] = molecular target: IsaA oligopeptide SEQ ID NO: 11 (Staphylococcus aureus); test: as above
[29] = molecular target: IsaA oligopeptide SEQ ID NO: 21 (Staphylococcus aureus); test: as above
[30] = molecular target: T8, IsaA oligopeptide SEQ ID NO: 29 (Staphylococcus aureus); test: as above
T8 sequence (peptide): SWSYEAANGQTAGFS

[31] = molecular target: T9, IsaA oligopeptide SEQ ID NO: 13 (Staphylococcus aureus); test: as above
T9 sequence (peptide): TGYAAGTGHQAHAAE

[32] = molecular target: IsaA oligopeptide SEQ ID NO: 59 (Staphylococcus aureus); test: as above
[33] = molecular target: T10, recombinant IsaA protein of Staphylococcus aureus (29 kDa immunodominant antigen IsaA) (Staphylococcus aureus, UniProt Q2FV52 30-233, limits assumed); test: SPR (BIACORE 2000), antibody captured on anti-mouse Fc surface, IsaA as analyte, 1:1 Langmuir fit
T10 construct: Coated as rIsaA in the ELISA; In the first SPR experiment it was N-biotinylated with sulfo-NHS-LC-biotin (mostly at a single site) and immobilised on streptavidin; In the second SPR experiment it was the analyte in solution; also called rIsaA; 29 kDa IsaA antigen
T10 sequence (looked up): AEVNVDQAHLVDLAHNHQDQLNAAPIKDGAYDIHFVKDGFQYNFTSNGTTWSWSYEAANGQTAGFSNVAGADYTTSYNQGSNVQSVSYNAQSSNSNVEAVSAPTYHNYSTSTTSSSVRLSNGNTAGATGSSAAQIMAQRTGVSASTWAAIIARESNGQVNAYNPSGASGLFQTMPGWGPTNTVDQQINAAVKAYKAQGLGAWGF
Protocol: A blank anti mouse Fc surface was used as control surface for monitoring unspecific binding and performing reference subtraction. Interaction analyses were performed using HBS-EP buffer (10 mM HEPES pH 7.4, 150 mM NaCl, 3 mM EDTA, 0.005% Tween 20). Sensorgrams were recorded at a flow rate of 30 μl/min at 25° C. Association and dissociation times were set to 3 and 15 min, respectively.
The anti-Fc capturing surfaces were regenerated after each cycle using short pulses of 10 mM glycine pH 1.7.
Affinities and rate constants for association (kₒₙ) and for dissociation (koff) were calculated using the BIAevaluation software 4.0.1 fitting the obtained sensorgrams to a 1:1 Langmuir binding model.

[34] = molecular target: T10, recombinant IsaA protein of …; test: SPR (BIACORE 2000), biotinylated IsaA on streptavidin chip, antibody as analyte
Protocol: (§1) The amount of the immobilized antigen corresponds to about 100 resonance units [RU] measured by means of the BIACORE®2000 system.
(§2) Interaction analyses were performed using HBS150 buffer (10 mM HEPES pH7.4, 150 mM NaCl, 3.4 mM EDTA). Sensorgrams were recorded at a flow rate of 10 μl/min at 25° C. The association and dissociation time was set to 10 min. The chips were regenerated after each cycle with different regeneration solutions (A: 1 mM CH₃COOH, 1 M NaCl, pH 3; B: 4 M MgCl₂; C: 1 mM CH₃COOH, 1 M NaCl, 6 M Urea, pH 3) for 2 min.

[35] = molecular target: T10, recombinant IsaA protein of …; test: SPR (BIACORE 2000), biotinylated IsaA on streptavidin chip, antibody as analyte; off rate set to 10^-5 sec^-1; off rate set to 10^-5 sec^-1
Protocol: as §1, §2
Since the evaluation of the kinetic rate constant is limited to 10⁻⁵ sec⁻¹ the observed off-rate has to be smaller than that value.

control antibodies (peptide array) (antibody)
Binding (fluorescence intensity) [1]: -14.3 | Binding (fluorescence intensity) [2]: 14.7 | Binding (fluorescence intensity) [3]: 81 | Binding (fluorescence intensity) [4]: 35.7 | Binding (fluorescence intensity) [5]: 83.7 | Binding (fluorescence intensity) [6]: -7 | Binding (fluorescence intensity) [7]: 97.7 | Binding (fluorescence intensity) [8]: -51.7 | Binding (fluorescence intensity) [9]: -27 | Binding (fluorescence intensity) [10]: 110 | Binding (fluorescence intensity) [11]: 398 | Binding (fluorescence intensity) [12]: 107 | Binding (fluorescence intensity) [13]: 98.7 | Binding (fluorescence intensity) [14]: 261 | Binding (fluorescence intensity) [15]: 106 | Binding (fluorescence intensity) [16]: 6.3 | Binding (fluorescence intensity) [17]: 117 | Binding (fluorescence intensity) [18]: 46.3 | Binding (fluorescence intensity) [19]: -22 | Binding (fluorescence intensity) [20]: -24.3 | Binding (fluorescence intensity) [21]: -35 | Binding (fluorescence intensity) [22]: -61.7 | Binding (fluorescence intensity) [23]: 367 | Binding (fluorescence intensity) [24]: -60 | Binding (fluorescence intensity) [25]: 77.3 | Binding (fluorescence intensity) [26]: 18.7 | Binding (fluorescence intensity) [27]: -20 | Binding (fluorescence intensity) [28]: -11 | Binding (fluorescence intensity) [29]: 182 | Binding (fluorescence intensity) [30]: 85.7 | Binding (fluorescence intensity) [31]: 367 | Binding (fluorescence intensity) [32]: 132

B1: monoclonal antibody MAB-UK-66 secreted by hybridoma cell line DSM ACC2987 (antibody, V domains shown)
VH: DVKLVESGGGLVKLGGSLKLSCSASGFTFSNYYMSWVRQTPEKRLELVADINGNGGSTYYPDTVKGRFTISRDNAKNTLYLQMSSLKSEDTALYYCVRRGGYYALDYWGQGTTVTVSS
VL: DVVMTQTPLSLPVSLGDQASISCRSSQSLVHINGNTYLHWYLQKPGQSPKLLIYRVSNRFSGVPDRFSGSGSGTDFTLKISRVEAEDLGVYFCSQSTHVPWTFGGGTKLELKR
notes: Monoclonal mouse antibody from a hybridoma; Detected with anti-mouse IgG; also called antibodies secreted by cell line DSM ACC2987; anti-IsaA MAB
Binding (fluorescence intensity) [1]: 2740 | Binding (fluorescence intensity) [6]: 1670 | Binding (fluorescence intensity) [9]: 6010 | Binding (fluorescence intensity) [17]: 1950 | Binding (fluorescence intensity) [21]: 3190 | Binding (fluorescence intensity) [25]: 3170 | Binding (fluorescence intensity) [26]: 3070 | Binding (fluorescence intensity) [27]: 2940 | Binding (fluorescence intensity) [30]: 2490 | Binding (fluorescence intensity) [31]: 5750 | Kd [33]: 1.7 nM | koff [33]: 0.00029 s⁻¹ | kon [33]: 180000 M⁻¹ s⁻¹ | koff [34]: < 1e-05 s⁻¹ | Kd [35]: ≤ 0.018 nM | kon [35]: 560000 M⁻¹ s⁻¹
